Laboratory results published in publication PMC4239663, “Structural basis for extracellular cis and trans RPTPσ signal competition in synaptogenesis” (Nature Communications, 2014).
Read-outs that look alike come from different tables or passages of the source. Each block holds one binder with its values, some of them ahead of it.

What was measured:
[1] = biological target: T1, chicken RPTPσ Ig1–3, C-terminal Avitag, immobilized (chicken, UniProt F1NWE3 29-316, biotin on the Avitag (enzymatic)); experiment: SPR; equilibrium; biotinylated chicken RPTPσ Ig1–3 (wild type or mutants) immobilized on streptavidin-coated CM5 chips, chicken TrkC LRRIg1 as analyte; 10 mM HEPES pH 7.5, 150 mM NaCl, 0.01% Tween 20, 25 °C; conditions: both partners purified
T1 construct: chicken RPTPσ Ig1–3, amino acids 29–316 of NCBI NM_205407.1; not shown: Avitag (BirA recognition site), C-terminal, kept
T1 sequence (looked up): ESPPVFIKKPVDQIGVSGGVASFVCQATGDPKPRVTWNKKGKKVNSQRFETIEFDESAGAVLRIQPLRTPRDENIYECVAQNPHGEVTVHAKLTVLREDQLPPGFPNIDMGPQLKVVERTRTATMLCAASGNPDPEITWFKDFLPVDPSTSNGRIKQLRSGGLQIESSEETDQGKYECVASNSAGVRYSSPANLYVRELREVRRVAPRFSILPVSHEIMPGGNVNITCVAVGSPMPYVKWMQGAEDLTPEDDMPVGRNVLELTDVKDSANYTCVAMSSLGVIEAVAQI

[2] = biological target: T2, chicken RPTPσ N73S+S74N (RPTPδ-like) Ig1–3, C-terminal Avitag (chicken, UniProt F1NWE3 29-316, N73S | S74N, biotin on the Avitag (enzymatic)); experiment: as above; conditions: both partners purified
T2 construct: chicken RPTPσ Ig1–3, amino acids 29–316 of NCBI NM_205407.1; not shown: Avitag (BirA recognition site), C-terminal, kept
T2 sequence (looked up): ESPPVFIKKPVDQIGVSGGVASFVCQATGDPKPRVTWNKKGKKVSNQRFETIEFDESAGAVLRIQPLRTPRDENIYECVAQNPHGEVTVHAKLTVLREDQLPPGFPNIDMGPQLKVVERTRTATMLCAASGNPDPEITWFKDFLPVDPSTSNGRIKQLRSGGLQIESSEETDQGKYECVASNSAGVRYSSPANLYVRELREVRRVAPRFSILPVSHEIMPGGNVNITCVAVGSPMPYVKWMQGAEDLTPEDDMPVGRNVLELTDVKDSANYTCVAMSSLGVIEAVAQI

[3] = biological target: T3, mouse TrkC LRRIg1 (soluble) (mouse, UniProt Q6VNS1 32-302); experiment: SPR
T3 chain: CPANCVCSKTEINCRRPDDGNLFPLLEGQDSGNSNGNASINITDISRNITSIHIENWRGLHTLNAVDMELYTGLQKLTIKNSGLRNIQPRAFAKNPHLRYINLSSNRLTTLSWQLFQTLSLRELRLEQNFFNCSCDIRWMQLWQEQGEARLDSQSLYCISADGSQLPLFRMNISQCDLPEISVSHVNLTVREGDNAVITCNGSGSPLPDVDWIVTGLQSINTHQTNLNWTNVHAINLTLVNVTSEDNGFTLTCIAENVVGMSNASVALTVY

[4] = biological target: T3, mouse TrkC LRRIg1 (soluble); experiment: SPR
[5] = biological target: T4, mouse TrkC LRRIg1, C-terminal Avitag, immobilized (mouse, UniProt Q6VNS1 32-302, biotin on the Avitag (enzymatic)); experiment: SPR; equilibrium; biotinylated mouse TrkC LRRIg1 (wild type or D240A+D242A) immobilized on streptavidin-coated CM5 chips, human RPTP proteins as analytes; 10 mM HEPES pH 7.5, 150 mM NaCl, 0.01% Tween 20, 25 °C; in Fig. 6a also with increasing HS or heparin-dp10; conditions: both partners purified
T4 construct: mouse TrkC, leucine-rich repeat domain and first Ig domain, amino acids 32–302 of NCBI BC139764.1; not shown: Avitag (BirA recognition site), C-terminal, kept

[6] = biological target: T5, chicken TrkC LRRIg1cryst (crystallization protein) (chicken, UniProt Q91044 32-302, lack residues 63–77 | N163Q | N232Q | N259Q | N267Q | N294Q); experiment: crystal structure; 2.5 Å, space group P2; 10% PEG 20k, 20% PEG MME 550, 0.1 M bicine/Tris pH 8.5, 0.03 M sodium nitrate, disodium hydrogen phosphate and ammonium sulphate; 20.5 °C; conditions: both partners purified
T5 construct: chicken TrkC LRRIg1, amino acids 32–302 of NCBI NM_205169.1, lacking residues 63–77; extra vector residues ETG (N-terminal) and GT (C-terminal) seen in the model; The methods name only the pHL-Avitag3 vector for this construct; also called cTrkC LRRIg1_(cryst)
T5 sequence (looked up): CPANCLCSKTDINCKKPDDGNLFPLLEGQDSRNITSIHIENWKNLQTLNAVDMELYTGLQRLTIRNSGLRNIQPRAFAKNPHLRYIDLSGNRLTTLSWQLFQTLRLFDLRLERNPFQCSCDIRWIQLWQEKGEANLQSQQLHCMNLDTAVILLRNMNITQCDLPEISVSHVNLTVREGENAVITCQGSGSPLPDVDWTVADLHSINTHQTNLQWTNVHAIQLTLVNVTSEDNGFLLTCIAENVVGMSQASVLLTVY

[7] = biological target: T6, TrkC (species and construct not stated; Supplementary Figs 5a,b and 8i) ( (mouse or chicken constructs …, UniProt Q6VNS1 32-825); experiment: SPR; equilibrium; RPTPσ and TrkC truncations (Supplementary Fig. 5a,b); species and who was immobilized not given; conditions: both partners purified
T6 construct: TrkC ectodomain construct; they may differ

[8] = biological target: T3, mouse TrkC LRRIg1 (soluble); experiment: SPR
[9] = biological target: T7, mouse TrkC LRRIg1, C-terminal Avitag, immobilized (mouse, UniProt Q6VNS1 32-302, biotin on the Avitag (enzymatic)); experiment: SPR
T7 chain: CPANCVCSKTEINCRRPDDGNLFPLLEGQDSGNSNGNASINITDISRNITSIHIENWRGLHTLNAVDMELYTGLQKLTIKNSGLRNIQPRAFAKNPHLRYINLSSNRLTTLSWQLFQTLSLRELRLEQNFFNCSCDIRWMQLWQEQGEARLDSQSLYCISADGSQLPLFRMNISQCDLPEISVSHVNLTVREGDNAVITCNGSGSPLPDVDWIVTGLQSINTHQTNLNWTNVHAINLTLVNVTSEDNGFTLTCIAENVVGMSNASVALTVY

[10] = biological target: T8, mouse TrkC LRRIg2 (Mus musculus); experiment: SPR
T8 chain: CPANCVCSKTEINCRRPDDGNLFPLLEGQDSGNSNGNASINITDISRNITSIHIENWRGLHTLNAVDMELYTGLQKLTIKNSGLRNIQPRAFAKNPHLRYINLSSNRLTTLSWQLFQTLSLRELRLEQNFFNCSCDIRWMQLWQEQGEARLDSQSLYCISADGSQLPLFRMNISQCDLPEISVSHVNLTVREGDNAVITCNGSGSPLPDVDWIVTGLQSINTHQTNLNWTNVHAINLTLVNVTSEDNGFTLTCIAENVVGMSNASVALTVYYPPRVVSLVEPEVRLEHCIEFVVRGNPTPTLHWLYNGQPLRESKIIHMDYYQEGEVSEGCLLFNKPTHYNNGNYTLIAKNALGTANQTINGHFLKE

[11] = biological target: T3, mouse TrkC LRRIg1 (soluble); experiment: SEC-MALS; Superdex200 HR10/30 in 10 mM Tris, 50 mM NaCl, pH 7.5; refractive index and multi-angle light scattering detectors

B2: RPTPσ Ig1–3 (species not stated; Supplementary Figs 5a and 8i) (domain or fragment)
chain: EEPPRFIKEPKDQIGVSGGVASFVCQATGDPKPRVTWNKKGKKVNSQRFETIEFDESAGAVLRIQPLRTPRDENVYECVAQNSVGEITVHAKLTVLREDQLPSGFPNIDMGPQLKVVERTRTATMLCAASGNPDPEITWFKDFLPVDPSASNGRIKQLRSGALQIESSEETDQGKYECVATNSAGVRYSSPANLYVRVRRVAPRFSILPMSHEIMPGGNVNITCVAVGSPMPYVKWMQGAEDLTPEDDMPVGRNVLELTDVKDSANYTCVAMSSLGVIEAVAQITVKSLPKA
- Kd [3]: 551 nM
- Kd [4]: 580 nM

B4: chicken RPTPσ Ig1–2 (as found in the 2.5 Å complex crystals) (domain or fragment)
chain: ESPPVFIKKPVDQIGVSGGVASFVCQATGDPKPRVTWNKKGKKVNSQRFETIEFDESAGAVLRIQPLRTPRDENIYECVAQNPHGEVTVHAKLTVLREDQLPPGFPNIDMGPQLKVVERTRTATMLCAASGNPDPEITWFKDFLPVDPSTSNGRIKQLRSGGLQIESSEETDQGKYECVASNSAGVRYSSPANLYVR
notes: chicken RPTPσ; the crystallization protein was Ig1–3 (amino acids 29–316 of NM_205407.1); the cleavage site in the Ig2–Ig3 linker is not determined; also called cRPTPσ Ig1-2; source: HEK-293S GnTI− cells as Ig1–3, purified; Ig3 absent from the crystals, proteolytic cleavage the most likely reason
- stoichiometry N [6]: 1

B5: RPTPσ Ig1–2 (species not stated; Supplementary Fig. 5a) (domain or fragment)
chain: EEPPRFIKEPKDQIGVSGGVASFVCQATGDPKPRVTWNKKGKKVNSQRFETIEFDESAGAVLRIQPLRTPRDENVYECVAQNSVGEITVHAKLTVLREDQLPSGFPNIDMGPQLKVVERTRTATMLCAASGNPDPEITWFKDFLPVDPSASNGRIKQLRSGALQIESSEETDQGKYECVATNSAGVRYSSPANLYVRV
- Kd [7]: 2400 nM

Results, then the binder that gave them:

- Kd [1]: 3500 nM
- Kd [2]: > 21000 nM
B1: chicken TrkC LRRIg1 (analyte of Fig. 3c) (domain or fragment)
chain: CPANCLCSKTDINCKKPDDGNLFPLLEGQDSGSSNGNTSINITDISRNITSIHIENWKNLQTLNAVDMELYTGLQRLTIRNSGLRNIQPRAFAKNPHLRYIDLSGNRLTTLSWQLFQTLRLFDLRLERNPFQCSCDIRWIQLWQEKGEANLQSQQLHCMNLDTAVILLRNMNITQCDLPEISVSHVNLTVREGENAVITCQGSGSPLPDVDWTVADLHSINTHQTNLQWTNVHAIQLTLVNVTSEDNGFLLTCIAENVVGMSQASVLLTVY

- Kd [5]: > 22000 nM
B3: human RPTPδ sEcto (domain or fragment)
chain: ETPPRFTRTPVDQTGVSGGVASFICQATGDPRPKIVWNKKGKKVSNQRFEVIEFDDGSGSVLRIQPLRTPRDEAIYECVASNNVGEISVSTRLTVLREDQIPRGFPTIDMGPQLKVVERTRTATMLCAASGNPDPEITWFKDFLPVDTSNNNGRIKQLRSESIGGTPIRGALQIEQSEESDQGKYECVATNSAGTRYSAPANLYVRELREVRRVPPRFSIPPTNHEIMPGGSVNITCVAVGSPMPYVKWMLGAEDLTPEDDMPIGRNVLELNDVRQSANYTCVAMSTLGVIEAIAQITVKALPKPPGTPVVTESTATSITLTWDSGNPEPVSYYIIQHKPKNSEELYKEIDGVATTRYSVAGLSPYSDYEFRVVAVNNIGRGPPSEPVLTQTSEQAPSSAPRDVQARMLSSTTILVQWKEPEEPNGQIQGYRVYYTMDPTQHVNNWMKHNVADSQITTIGNLVPQKTYSVKVLAFTSIGDGPLSSDIQVITQTGVPGQPLNFKAEPESETSILLSWTPPRSDTIANYELVYKDGEHGEEQRITIEPGTSYRLQGLKPNSLYYFRLAARSPQGLGASTAEISARTMQSKPSAPPQDISCTSPSSTSILVSWQPPPVEKQNGIITEYSIKYTAVDGEDDKPHEILGIPSDTTKYLLEQLEKWTEYRITVTAHTDVGPGPESLSVLIRTNEDVPSGPPRKVEVEAVNSTSVKVSWRSPVPNKQHGQIRGYQVHYVRMENGEPKGQPMLKDVMLADAQWEFDDTTEHDMIISGLQPETSYSLTVTAYTTKGDGARSKPKLVSTTGAVPGKPRLVINH

- Kd [8]: 468 nM
- Kd [9]: 278 nM
- Kd [10]: 202 nM
- stoichiometry N [11]: 1
B6: human RPTPσ Ig1-FN3 (domain or fragment)
chain: EEPPRFIKEPKDQIGVSGGVASFVCQATGDPKPRVTWNKKGKKVNSQRFETIEFDESAGAVLRIQPLRTPRDENVYECVAQNSVGEITVHAKLTVLREDQLPSGFPNIDMGPQLKVVERTRTATMLCAASGNPDPEITWFKDFLPVDPSASNGRIKQLRSGALQIESSEETDQGKYECVATNSAGVRYSSPANLYVRVRRVAPRFSILPMSHEIMPGGNVNITCVAVGSPMPYVKWMQGAEDLTPEDDMPVGRNVLELTDVKDSANYTCVAMSSLGVIEAVAQITVKSLPKAPGTPMVTENTATSITITWDSGNPDPVSYYVIEYKSKSQDGPYQIKEDITTTRYSIGGLSPNSEYEIWVSAVNSIGQGPPSESVVTRTGEQAPASAPRNVQARMLSATTMIVQWEEPVEPNGLIRGYRVYYTMEPEHPVGNWQKHNVDDSLLTTVGSLLEDETYTVRVLAFTSVGDGPLSDPIQVKTQQGVPGQPMNLRAEARSETSITLSWSPPRQESIIKYELLFREGDHGREVGRTFDPTTSYVVEDLKPNTEYAFRLAARSPQGLGAFTPVVRQRTL
